Experimental data reported in patent publication CN107827981A (SHENZHEN GUOCHUANG NANOMETER ANTIBODY TECH CO LTD, dated 2018).

T1: 重组PE免疫毒素 (recombinant Pseudomonas exotoxin A, partial sequence) (Pseudomonas aeruginosa (绿脓杆菌), UniProt P11439 173-638)
T1 construct: also called 重组PE抗原; 重组蛋白PE
T1 sequence: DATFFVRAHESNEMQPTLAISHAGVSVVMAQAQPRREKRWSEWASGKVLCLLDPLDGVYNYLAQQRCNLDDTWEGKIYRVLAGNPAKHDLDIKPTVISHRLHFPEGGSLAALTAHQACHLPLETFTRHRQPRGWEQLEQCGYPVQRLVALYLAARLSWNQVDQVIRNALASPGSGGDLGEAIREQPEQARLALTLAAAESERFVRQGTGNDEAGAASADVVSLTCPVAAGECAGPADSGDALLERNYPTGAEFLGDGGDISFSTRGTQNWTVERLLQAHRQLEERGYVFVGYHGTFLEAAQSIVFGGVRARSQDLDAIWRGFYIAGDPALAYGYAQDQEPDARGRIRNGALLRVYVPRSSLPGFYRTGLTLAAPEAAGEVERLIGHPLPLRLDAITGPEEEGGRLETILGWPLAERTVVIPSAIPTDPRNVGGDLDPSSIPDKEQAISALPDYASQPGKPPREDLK

B1: 纳米抗体VHH-PE 2 (VHH)
chain: ESGGGLVQAGGSLRLSGVASRRTFCNYLDAMGWLSLVTGKERELVAHITGNRGDVMYLDSVKAGSTISRVKTNSTVYLQMNSMKPEDTHVYYWAPKATGFFSPKEEEKYNWWGQGTQ
B2: 纳米抗体VHH-PE 1 (VHH)
VHH: ESGGGLVQAGGSLRLSCAASGRTFSSTGHTFSSYAMGWFRQTPGKEREFVAAISWSGTSTYYADSVKGRFTISRDNAKNTVYLQMNSLKPEDTAVYYCAARFWDYGLGSSDLKSPREYDYWGQGTQ

Biological target: T1, 重组PE免疫毒素 (recombinant Pseudomonas …)
Test: SPR, Biacore T100, 1:1 binding fit

Row | Binder | Kd [nM]
1 | B1 | 4.85
2 | B2 | 12.2
